According to US20200123233A1 (published 2020):
Where a chain is given by its changes, count along the chain named.

B1: PMP23E5 (VHH)
VHH: EVQLMESGGGLVQAGGSLRLSCAASGGTFSSYAMGWFRQAPGEERDFVAAIGWSGNSPYYAQFVKGRFTISRDNAKNTVHLQMNSLKPEDTAVYYCAAAHNTMGSDYEGYDYWGQGTQVTVSS
B2: PMP13A1 (VHH)
VHH: EVQLVESGGGLVQPGGSLRLSCAASGLTLDYYALGWFRQAPGKEREGVSCISSADHSTTYADSVKGRFTISWDNAKNTVYLQMNSLKPEDTAVYYCAADPALGCYSGNYYPRYDYWGQGTQVTVSS
B3: PMP19E2 (VHH)
VHH: B2 VHH with A54S, S57T, A61T, V79L, N108S, Y115F
B4: PMP8A1 (VHH)
VHH: EVQLVESGGGLVQPGGSLRVSCAASGFTFNDYIMGWFRQAPGKERMFIAAISGTGTIKYYGDLVRGRFTISRDNAKNTVYLRIDSLNPEDTAVYYCAARQDYGLGYRESHEYDYWGQGTQVTVSS
B5: PMP13C1 (VHH)
VHH: EVQLVESGGGLVQPGGSLRLSCEASGFTWDYYVIGWFRQAPGKEREGLSCISSDGSTTYADSVKGRFTISRDNAKNTVYLQMNSLEPEDTAVYYCATDPALGCYSGSYYPRYDYWGQGTQVTVSS
B6: PMP8B10 (VHH)
VHH: EVQLVESGGGLVQAGASLRLSCAASGLAFSRYAMGWFRQAPGKERESVAAISSSGDNIYYADSVKGQFTMSRDNAKSSVYLQMINLKPEDTAVYYCAATSPLFVASDYFEASRYGYWGQGTQVTVSS
B7: PMP13B4 (VHH)
VHH: EVQLVESGGGLVQAGGSLRLSCAASGFTFDDYAIGWFRQAPGKEREAVSCISSSDGSTYYADSVKGRFTISSDNAKNMVYLQMNSLKPEDTAVYYCAADLLRTAVGCLDYRGTYYPRTTMDYRGKGTLVTVSS
B8: PMP13D1 (VHH)
VHH: EVQLVESGGGLVQPGGSLRLSCATSGFTEDYYVIGWFRQAPGKEREGVSCMSSSGDSTTYADSVKGRFTISRDNAKNMVYLQMTSLKPEDTAVYYCAADFALGCYSGSYYPRYDYWGQGTQVTVSS
B9: PMP13E12 (VHH)
VHH: EVQLVESGGGLVQAGGSLRLSCAASGRTFSRYIMGWFRQAPGKEREFVGAISRSGDITSFADFVKGRFTMSRDNAKNTLYLQMNSLEPEDTAVYSCAANSDTYYIYSDIVVPERYDYWGQGTQVTVSS
B10: LG192B1 (VHH)
VHH: EVQLVESGGGLVQPGGSLRLSCAASGLTFRNYAIGWFRQAPGKEREGVSCINSGGSITDYLDSVKGRFAISRDNAKSTVYLQMNSLKPEDTAVYYCATDLTSSCPIYSGTDYWGKGTLVTVSS
B11: LG192F2 (VHH)
VHH: EVQLVESGGGLVQAGGSLRLSCEASGRTFSPIAMGWFRQAPGKEREFVAVVTRWSGARTVYADSVKGRFTISRDNAENTVYLQMNSLKPEDTAVYTCAADSTNRNSGAIYYTWAYDYWGQGTQVTVSS
B12: LG191D3 (VHH)
VHH: EVQLVESGGGLVQAGGSLRLSCEASGRTYSRYGMGWFRQAPGKEREFVAAVSRLSGPRTVYADSVKGRFTISRDNAENTVYLQMNSLKPEDTAVYTCAAELTNRNSGAYYYAWAYDYWGQGTQVTVSS
B13: LG192C6 (VHH)
VHH: B11 VHH with F29E, S30R, P31Y, I32Q, S106R
B14: LG192H2 (VHH)
VHH: B11 VHH with P31N, I32Y, A57G, I109W, Y117H
B15: LG192C10 (VHH)
VHH: EVQLVESGGGLVQAGGSLRLSCAASEGYFRNYMVGWFRQAPGGERMFVAAISDTAYYADSVKGRFTISRDNAKNTVYLPMNSLKPEDTAVYYCAAAPKSWGTWPLVADTRSYHFWGQGTQVTVSS
B16: LG192H1 (VHH)
VHH: EVQLVESGGGLVQAGGSLRLSCAASGIIFSTNHMGWYRRAPGKQRELVGTINRGDSPYYADSVKGRFTISRDNAKNMVYLQMNSLKPEDTAVYYCNAGYIYWGQGTQVTVSS
B17: LG191E4 (VHH)
VHH: EVQLVESGGGLVQAGGSLRLSCAASGPTFSADTMGWFRQAPGKEREFVATIPWSGGIAYYSDSVKGRFTMSRDNAKNTVDLQMNSLKPEDTALYYCAGSSRIYIYSDSLSERSYDYWGQGTQVTVSS
B18: LG191B9 (VHH)
VHH: EVQLVESGGGLVQAGGSLRLSCAASGRTFSSSFMAWFRQVLGSDREFVGGISPGGRFTYYADSRKGRFTISGDNANNTVYLQMHSVKPEDTATYYCAADTQFSGYVPKETNEYDYWGQGTQVTVSS
B19: LG192A8 (VHH)
VHH: EVQLVESGGGLVQAGGSLRLSCAASERTVIAYTMGWFRRAPGKERDFVAAMNWNGGNTIYADSAKGRFTISRDNAKNTVYLQMNSLKAEDTAVYYCAARPRFWGSYEYDYWGQGTQVTVSS
B20: LG192C4 (VHH)
VHH: EVQLVESGGGLVQAGGSLRLSCEASGRTFSSYAMVGWFRQAPGKEREFVAAVTRWSGARTVYADSVKGRFTISRDNAENTVYLQMNSLKPEDTAVYTCAADSTNRNSGAVYYSWAYDYWGQGTQVTVSS

biological target: T1, FTM-NN protein (membrane anchorless form of the Long fusion protein of hRSV, 70 kDa) (human respiratory syncytial virus, …, UniProt P12568 26-524); assay: ELISA, periplasmic extract on immobilised F protein; signal as fold over blank

| Binder | Binding RSV-A, Fold blanc [fold over blank] |
| --- | --- |
| B1 | 3.4 |
| B2 | 2.9 |
| B3 | 3.5 |
| B4 | 3.7 |
| B5 | 3 |
| B6 | 3.5 |
| B7 | 2.7 |
| B8 | 3.1 |
| B9 | 3.7 |

biological target: T1, FTM-NN protein (membrane anchorless …); assay: competition ELISA, periplasmic extract diluted 1:300, competitor 101F Fab

| Binder | % Inhibition 101F Fab (1:300 PE) [%] |
| --- | --- |
| B1 | 16 |
| B2 | 46 |
| B3 | 27 |
| B4 | 55 |
| B5 | 37 |
| B6 | 31 |
| B7 | 47 |
| B8 | 52 |
| B9 | 28 |

biological target: T1, FTM-NN protein (membrane anchorless …); assay: competition ELISA, periplasmic extract diluted 1:1000, competitor 101F Fab

| Binder | % Inhibition 101F Fab (1:1000 PE) [%] |
| --- | --- |
| B2 | 13 |
| B3 | 5 |
| B4 | 20 |
| B5 | 9 |
| B6 | 6 |
| B7 | 20 |
| B8 | 16 |
| B9 | 8 |

biological target: T1, FTM-NN protein (membrane anchorless …); assay: competition ELISA, periplasmic extract diluted 1:100, competitor 101F Fab

| Binder | % Inhibition 101F Fab (1:100 PE) [%] |
| --- | --- |
| B1 | 37 |
| B2 | 74 |
| B3 | 74 |
| B5 | 57 |
| B6 | 56 |
| B7 | 82 |
| B8 | 78 |
| B9 | 74 |

biological target: T2, hRSV FTM- protein (membrane anchorless form of the fusion protein, 70 kDa) (human respiratory syncytial virus, UniProt P12568 26-524); assay: SPR (Biacore T100), FTM- amine-coupled on CM5 chip, 1:1 Langmuir fit
T2 construct: extracellular domain

| Binder | Kd [nM] | koff [s⁻¹] | kon [M⁻¹ s⁻¹] |
| --- | --- | --- | --- |
| B10 | 55.5 | 0.0127 | 229000 |
| B11 | 7.14 | 0.00577 | 807000 |
| B12 | 2.05 | 0.00324 | 1.59e+06 |
| B13 | 7 | 0.00808 | 1.15e+06 |
| B14 | 15.4 | 0.0128 | 829000 |
| B15 | 3.49 | 0.000613 | 175000 |
| B16 | 3.72 | 0.00611 | 1.65e+06 |
| B17 | 0.7 | 0.000208 | 298000 |
| B18 | 25.4 | 0.00492 | 194000 |
| B19 | 2.91 | 0.000937 | 322000 |
| B20 | 7.47 | 0.00846 | 1.13e+06 |
